Source: article PMC2132938 (The Journal of Cell Biology, 1999)
Like-named read-outs stand apart in the source and are kept apart here.

B1: hGFP–CAS (human CAS fused to hGFP) (natural protein)
chain: MELSDANLQTLTEYLKKTLDPDPAIRRPAEKFLESVEGNQNYPLLLLTLLEKSQDNVIKVCASVTFKNYIKRNWRIVEDEPNKICEADRVAIKANIVHLMLSSPEQIQKQLSDAISIIGREDFPQKWPDLLTEMVNRFQSGDFHVINGVLRTAHSLFKRYRHEFKSNELWTEIKLVLDAFALPLTNLFKATIELCSTHANDASALRILFSSLILISKLFYSLNFQDLPEFFEDNMETWMNNFHTLLTLDNKLLQTDDEEEAGLLELLKSQICDNAALYAQKYDEEFQRYLPRFVTAIWNLLVTTGQEVKYDLLVSNAIQFLASVCERPHYKNLFEDQNTLTSICEKVIVPNMEFRAADEEAFEDNSEEYIRRDLEGSDIDTRRRAACDLVRGLCKFFEGPVTGIFSGYVNSMLQEYAKNPSVNWKHKDAAIYLVTSLASKAQTQKHGITQANELVNLTEFFVNHILPDLKSANVNEFPVLKADGIKYIMIFRNQVPKEHLLVSIPLLINHLQAESIVVHTYAAHALERLFTMRGPNNATLFTAAEIAPFVEILLTNLFKALTLPGSSENEYIMKAIMRSFSLLQEAIIPYIPTLITQLTQKLLAVSKNPSKPHFNHYMFEAICLSIRITCKANPAAVVNFEEALFLVFTEILQNDVQEFIPYVFQVMSLLLETHKNDIPSSYMALFPHLLQPVLWERTGNIPALVRLLQAFLERGSNTIASAAADKIPGLLGVFQKLIASKANDHQGFYLLNSIIEHMPPESVDQYRKQIFILLFQRLQNSKTTKFIKSFLVFINLYCIKYGALALQEIFDGIQPKMFGMVLEKIIIPEIQKVSGNVEKKICAVGITKLLTECPPMMDTEYTKLWTPLLQSLIGLFELPEDDTIPDEEHFIDIEDTPGYQTAFSQLAFAGKKEHDPVGQMVNNPKIHLAQSLHKLSTACPGRVPSMVSTSLNAEALQYLQGYLQAASVTLL
B2: transportin (human transportin/karyopherin β2, recombinant) (natural protein)
chain: MEYEWKPDEQGLQQILQLLKESQSPDTTIQRTVQQKLEQLNQYPDFNNYLIFVLTKLKSEDEPTRSLSGLILKNNVKAHFQNFPNGVTDFIKSECLNNIGDSSPLIRATVGILITTIASKGELQNWPDLLPKLCSLLDSEDYNTCEGAFGALQKICEDSAEILDSDVLDRPLNIMIPKFLQFFKHSSPKIRSHAVACVNQFIISRTQALMLHIDSFIENLFALAGDEEPEVRKNVCRALVMLLEVRMDRLLPHMHNIVEYMLQRTQDQDENVALEACEFWLTLAEQPICKDVLVRHLPKLIPVLVNGMKYSDIDIILLKGDVEEDETIPDSEQDIRPRFHRSRTVAQQHDEDGIEEEDDDDDEIDDDDTISDWNLRKCSAAALDVLANVYRDELLPHILPLLKELLFHHEWVVKESGILVLGAIAEGCMQGMIPYLPELIPHLIQCLSDKKALVRSITCWTLSRYAHWVVSQPPDTYLKPLMTELLKRILDSNKRVQEAACSAFATLEEEACTELVPYLAYILDTLVFAFSKYQHKNLLILYDAIGTLADSVGHHLNKPEYIQMLMPPLIQKWNMLKDEDKDLFPLLECLSSVATALQSGFLPYCEPVYQRCVNLVQKTLAQAMLNNAQPDQYEAPDKDFMIVALDLLSGLAEGLGGNIEQLVARSNILTLMYQCMQDKMPEVRQSSFALLGDLTKACFQHVKPCIADFMPILGTNLNPEFISVCNNATWAIGEISIQMGIEMQPYIPMVLHQLVEIINRPNTPKTLLENTAITIGRLGYVCPQEVAPMLQQFIRPWCTSLRNIRDNEEKDSAFRGICTMISVNPSGVIQDFIFFCDAVASWINPKDDLRDMFCKILHGFKNQVGDENWRRFSDQFPLPLKERLAAFYGV

Tests used:
[1] = target: T1, Ran (recombinant human wild-type Ran, charged with GTP or GDP) (human, UniProt P62826 1-216); assay: co-IP
[2] = target: T1, Ran (recombinant human wild-type Ran, …); assay: co-IP; remark: listed apart in the source

Binder | binding result [1] | binding result [2]
B1 | binds | –
B2 | – | binds
